Substitutions are numbered along the chain they refer to.
T1: DENV-2 nonstructural protein 1 (NS1), recombinant (dengue virus serotype 2 (DENV-2))
T1 chain: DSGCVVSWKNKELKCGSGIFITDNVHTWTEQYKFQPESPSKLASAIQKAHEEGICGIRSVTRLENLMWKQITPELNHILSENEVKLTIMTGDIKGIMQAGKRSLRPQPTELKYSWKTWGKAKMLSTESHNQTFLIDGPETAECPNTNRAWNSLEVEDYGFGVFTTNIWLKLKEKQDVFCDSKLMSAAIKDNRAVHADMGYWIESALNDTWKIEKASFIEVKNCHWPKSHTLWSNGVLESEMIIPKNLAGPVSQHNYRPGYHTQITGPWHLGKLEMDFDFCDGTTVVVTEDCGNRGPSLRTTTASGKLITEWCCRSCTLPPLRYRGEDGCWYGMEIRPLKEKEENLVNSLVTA

T2: DENV-1 nonstructural protein 1 (NS1), recombinant (dengue virus serotype 1 (DENV-1))
T2 chain: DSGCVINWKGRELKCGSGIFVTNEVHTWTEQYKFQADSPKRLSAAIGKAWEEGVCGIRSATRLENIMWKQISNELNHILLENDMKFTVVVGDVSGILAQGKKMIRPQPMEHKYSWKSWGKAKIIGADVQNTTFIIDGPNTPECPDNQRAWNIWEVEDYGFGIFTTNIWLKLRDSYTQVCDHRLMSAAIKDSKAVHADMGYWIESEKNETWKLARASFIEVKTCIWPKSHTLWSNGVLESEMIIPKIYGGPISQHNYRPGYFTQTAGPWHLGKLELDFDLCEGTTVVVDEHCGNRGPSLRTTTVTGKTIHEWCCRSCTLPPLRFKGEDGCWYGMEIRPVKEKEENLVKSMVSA

T3: DENV-4 nonstructural protein 1 (NS1), recombinant (dengue virus serotype 4 (DENV-4))
T3 chain: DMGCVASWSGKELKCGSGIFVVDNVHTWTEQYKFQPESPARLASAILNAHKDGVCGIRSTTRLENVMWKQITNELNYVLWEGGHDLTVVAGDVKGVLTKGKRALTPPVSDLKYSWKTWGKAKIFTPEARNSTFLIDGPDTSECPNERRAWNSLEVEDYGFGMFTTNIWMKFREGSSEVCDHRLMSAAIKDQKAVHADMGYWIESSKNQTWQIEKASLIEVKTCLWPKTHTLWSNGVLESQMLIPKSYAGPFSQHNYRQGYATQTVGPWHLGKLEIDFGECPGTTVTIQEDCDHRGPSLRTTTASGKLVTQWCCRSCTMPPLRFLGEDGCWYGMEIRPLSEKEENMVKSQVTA

T4: DENV-3 nonstructural protein 1 (NS1), recombinant (dengue virus serotype 3 (DENV-3))
T4 chain: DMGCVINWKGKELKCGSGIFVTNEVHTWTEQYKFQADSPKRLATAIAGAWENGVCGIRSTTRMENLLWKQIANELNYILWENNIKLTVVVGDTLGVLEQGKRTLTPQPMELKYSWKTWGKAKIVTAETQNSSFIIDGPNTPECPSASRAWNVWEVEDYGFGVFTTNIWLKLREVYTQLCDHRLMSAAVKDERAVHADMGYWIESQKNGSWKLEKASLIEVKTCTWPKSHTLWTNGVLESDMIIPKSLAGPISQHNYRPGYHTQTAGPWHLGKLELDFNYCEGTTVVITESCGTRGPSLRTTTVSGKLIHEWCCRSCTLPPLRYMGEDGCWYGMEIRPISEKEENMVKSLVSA

B1: sdAb DD5 (VHH)
VHH: EVQLQASGGGLVQAGGSLRLSCAASGRAFSSETMGWFRQAPGKEREFVAAIWRIGGSTYNTDYADSVKGRFAISADRAKNTVDLQMNTLKPEDTAVYYCAGKMRGRSVNLYDYDYWGQGTQVTVSS
notes: source: E. coli Turner (DE3), pET22b, periplasmic, purified (Ni-Sepharose, SEC)
B2: sdAb DD1 (VHH)
VHH: EVQLQASGGGLVQAGGSLRVSCAATGIAFASYAVAWYRQAPGKQREWVATVGGLGGTKYVDSVKGRFTISRDNAKNAVTLQMNSLKPEDTAVYYCAAVEWDDGHYYWDTWGQGTRVTVSA
notes: as for B1
B3: sdAb DD9 (VHH)
VHH: EVQLQASGGGLVQAGGSLRVSCAASGIAFTNYALAWYRQPPGKQREWVATVGVLGGTKYADSVKGRFAISRDNAKNTVILQMNSLKPVDTAVYFCAAVEWSNGRYYWDSWGQGTQVTVSA
notes: as for B1
B4: sdAb DC7 (VHH)
VHH: EVQLQASGGGSVQAGGSLRLSCAHSSITVPDYTIGWYRRAPGKGGEEVSLISMHGGRTWYAGSVKGRFAISRDSVKNTVYLQMNNLKPEDTDIYYCGGTTFGLAAAPNEYDSWGQGSQVTVSS
notes: as for B1
B5: sdAb DD7 (VHH)
VHH: B4 VHH with Q5V, A6Q, Y37F, T58S
notes: as for B1
B6: sdAb DH12 (VHH)
VHH: EVQLVESGGGSVQAGGSLRLSCAASERTFSYYFMGWFRQAPGKEREWVARIRWNGDGADYTDAVKDRFTISSDHAKNTVYLQMNSLKPEDTAVYYCAAANSIWKPTTRDYNYWGQGTQVSVSS
notes: as for B1
B7: sdAb DB5 (VHH)
VHH: DVQLQASGGGLVQDGGSLRLSCAASGLGFRIHSMGWYRQAPGKARDLVAVITDSGQTNYAPSVKGRFTISRESAGNTVYLQMNSLKPDDTAVYYCAVTTWDPHSYWGQGTQVTVSS
notes: as for B1
B8: sdAb DC4 (VHH)
VHH: EVQLQASGGGLVQAGGSLRLSCAASERTFSHYFVGWFRQAPGKEREFVARITWSGSNVEYEDAVKDRFTLSSDNAKNTVYLHMNSLKPEDTAVYYCAAANTIWTPTIRDYNVWGQGTQVTVSS
notes: as for B1
B9: sdAb DH4 (VHH)
VHH: B2 VHH with E1D, L11V, K64R
notes: as for B1
B10: sdAb DD6 (VHH)
VHH: B4 VHH
notes: as for B1
B11: biotinylated sdAb DB5 (VHH)
VHH: B7 VHH
notes: also called Bt-DB5

Molecular target: T1, DENV-2 nonstructural protein 1 (NS1), …
Test: SPR; sdAb immobilized
Conditions: not given

| Binder | koff [s⁻¹] |
| --- | --- |
| B1 | 7.99e-05 |
| B2 | 0.000182 |
| B3 | 0.00034 |
| B4 | 0.000155 |
| B5 | 0.000435 |

Molecular target: T2, DENV-1 nonstructural protein 1 (NS1), …
Test: SPR; sdAb immobilized
Conditions: not given

| Binder | koff [s⁻¹] |
| --- | --- |
| B1 | 0.000318 |
| B2 | 0.000206 |
| B3 | 0.000289 |
| B4 | 0.00021 |
| B5 | 0.000423 |

Molecular target: T1, DENV-2 nonstructural protein 1 (NS1), …
Test: SPR; sdAb immobilized
Conditions: not given
Remark: another data set of the same source

| Binder | Kd [nM] |
| --- | --- |
| B4 | 0.556 |

Molecular target: T5, DENV-4 nonstructural protein 1 (NS1), recombinant (Dengue virus 4, strain …, UniProt P09866)
T5 construct: also called DENV-4 NS1; NS1 from DENV-4; source: bought: Native Antigen Company (recombinant)
Test: SPR
Conditions: both partners purified

| Binder | Kd [nM] | binding result |
| --- | --- | --- |
| B6 | 20.9 | – |
| B7 | – | no binding (tested: typically up to 300 nM) |
| B1 | 24 | – |
| B8 | 43 | – |
| B2 | 7.8 | – |
| B9 | 8.5 | – |
| B3 | 34.8 | – |
| B4 | 2.2 | – |
| B10 | 2.5 | – |
| B5 | 2.4 | – |

Molecular target: T6, DENV-3 nonstructural protein 1 (NS1), recombinant (Dengue virus 3, strain Sri …, UniProt Q6YMS4)
T6 construct: also called DENV-3 NS1; NS1 from DENV-3; source: bought: Native Antigen Company (recombinant)
Test: SPR
Conditions: both partners purified

| Binder | Kd [nM] |
| --- | --- |
| B6 | 12.4 |
| B7 | 4.4 |
| B1 | 3.2 |
| B8 | 31.6 |
| B2 | 85.8 |
| B9 | 23.8 |
| B3 | 21.8 |
| B4 | 1.2 |
| B10 | 1.1 |
| B5 | 7 |

Molecular target: T7, DENV-2 nonstructural protein 1 (NS1), recombinant (Dengue virus 2, strain …, UniProt P29990)
T7 construct: also called DENV-2 NS1; NS1 from DENV-2; source: bought: Native Antigen Company (recombinant)
Test: SPR
Conditions: both partners purified

| Binder | Kd [nM] | binding result |
| --- | --- | --- |
| B6 | 9.8 | – |
| B7 | – | no binding (tested: typically up to 300 nM) |
| B1 | 4.5 | – |
| B8 | 42.1 | – |
| B2 | 15 | – |
| B9 | 8.5 | – |
| B3 | 6.7 | – |
| B4 | 2.6 | – |
| B10 | 2 | – |
| B5 | 20.3 | – |

Molecular target: T8, DENV-1 nonstructural protein 1 (NS1), recombinant (Dengue virus 1, strain Nauru/West …, UniProt P17763)
T8 construct: also called DENV-1 NS1; NS1 from DENV-1; source: bought: Native Antigen Company (recombinant)
Test: SPR
Conditions: both partners purified

| Binder | Kd [nM] | binding result |
| --- | --- | --- |
| B6 | 14.4 | – |
| B7 | – | no binding (tested: typically up to 300 nM) |
| B1 | 2.8 | – |
| B8 | 62 | – |
| B2 | 28.5 | – |
| B9 | 10.3 | – |
| B3 | 18 | – |
| B4 | 9.1 | – |
| B10 | 7.6 | – |
| B5 | 5.4 | – |

Molecular target: T7, DENV-2 nonstructural protein 1 (NS1), …
Test: MagPlex (Luminex) bead assay, direct binding
Conditions: both partners purified

| Binder | binding result |
| --- | --- |
| B11 | no binding |

Molecular target: T1, DENV-2 nonstructural protein 1 (NS1), …
Test: SPR; NS1 immobilized
Conditions: not given

| Binder | koff [s⁻¹] |
| --- | --- |
| B6 | 0.00333 |
| B1 | 0.000347 |
| B8 | 0.00604 |
| B3 | 0.000545 |

Molecular target: T2, DENV-1 nonstructural protein 1 (NS1), …
Test: SPR; NS1 immobilized
Conditions: not given

| Binder | koff [s⁻¹] |
| --- | --- |
| B6 | 0.00658 |
| B1 | 0.000383 |
| B8 | 0.00889 |
| B3 | 0.00141 |

Molecular target: T3, DENV-4 nonstructural protein 1 (NS1), …
Test: SPR; NS1 immobilized
Conditions: not given

| Binder | koff [s⁻¹] |
| --- | --- |
| B6 | 0.00604 |
| B1 | 0.00193 |
| B8 | 0.00501 |
| B3 | 0.00428 |

Molecular target: T4, DENV-3 nonstructural protein 1 (NS1), …
Test: SPR; NS1 immobilized
Conditions: not given

| Binder | koff [s⁻¹] |
| --- | --- |
| B6 | 0.00323 |
| B1 | 0.000269 |
| B8 | 0.00741 |
| B3 | 0.000951 |

Molecular target: T5, DENV-4 nonstructural protein 1 (NS1), …
Test: SPR
Conditions: both partners purified
Remark: another data set of the same source

| Binder | Kd [nM] |
| --- | --- |
| B1 | 6.2 |
| B2 | 0.6 |
| B3 | 7.1 |
| B4 | 0.7 |
| B5 | 1.1 |

Molecular target: T6, DENV-3 nonstructural protein 1 (NS1), …
Test: SPR
Conditions: both partners purified
Remark: another data set of the same source

| Binder | Kd [nM] |
| --- | --- |
| B7 | 1.6 |
| B1 | 25.1 |
| B2 | 17.7 |
| B3 | 3.1 |
| B4 | 1.7 |
| B5 | 2.4 |

Molecular target: T7, DENV-2 nonstructural protein 1 (NS1), …
Test: SPR
Conditions: both partners purified
Remark: another data set of the same source

| Binder | Kd [nM] |
| --- | --- |
| B1 | 0.9 |
| B2 | 2.3 |
| B3 | 3.5 |
| B4 | 0.6 |
| B5 | 1.5 |

Molecular target: T8, DENV-1 nonstructural protein 1 (NS1), …
Test: SPR
Conditions: both partners purified
Remark: another data set of the same source

| Binder | Kd [nM] |
| --- | --- |
| B1 | 4.2 |
| B2 | 2.2 |
| B3 | 2.7 |
| B4 | 0.8 |
| B5 | 1.7 |
